The source of these data is the supplement of paper PMC5998384.

For series [1], the system named is HeLa Kyoto. The series is described as follows: thermal stability score vs G1/S (z-score of summed log2 fold changes over temperatures); higher = more thermally stable than in G1/S.
For series [2], the system named is HeLa Kyoto. Put plainly: melting temperature (median over replicates), in situ; higher = more thermally stable.
Series [3] concerns HeLa Kyoto. Put plainly: solubility change mitosis vs G1/S (difference of NP-40 vs SDS log2 ratios) (log2 ratio difference); higher = more soluble in mitosis.
Series [4] concerns HeLa Kyoto. Put plainly: solubility in G1/S (NP-40 vs SDS abundance) (log2 ratio); higher = more soluble. The following applies: cell cycle stage: G1/S.
[5] abbreviates: cell cycle stage: early G1 (4.5 h after nocodazole release).
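Wherever melting temperature (median over replicates), in situ is given: HeLa Kyoto cells synchronized by double thymidine or nocodazole block, proteins quantified by TMT10plex mass spectrometry, three independent biological replicates.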
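Wherever solubility change mitosis vs G1/S (difference of NP-40 vs SDS log2 ratios) is given: synchronized HeLa Kyoto cells (double thymidine block for G1/S, nocodazole release for mitosis), protein amounts in NP-40 versus SDS lysates quantified by mass spectrometry, three biological replicates.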
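Wherever solubility in G1/S (NP-40 vs SDS abundance) is given: HeLa Kyoto cells arrested at G1/S by double thymidine block, proteins quantified by TMT10plex mass spectrometry in mild NP-40 versus SDS extracts, three biological replicates.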
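Wherever thermal stability score vs G1/S (z-score of summed log2 fold changes over temperatures) is given: synchronized HeLa Kyoto cells, proteins quantified by TMT10plex mass spectrometry, three biological replicates, mitosis taken 0.5 h after nocodazole release, G1/S directly after double thymidine block.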

For “MSGFSPELIDYLEGKISFEEFERRREERKTREKKSLQEKGKLSAEENPDDSEVPSSSGINSTKSQDKDVNEGETSDGVRKSVHKVFASMLGENEDDEEEEEEEEEEEEEEETPEQPTAGDVFVLEMVLNRETKKMMKEKRPRSKLPRALRGLMGEANIRFARGEREEAILMCMEIIRQAPLAYEPFSTLAMIYEDQGDMEKSLQFELIAAHLNPSDTEEWVRLAEMSLEQDNIKQAIFCYTKALKYEPTNVRYLWERSSLYEQMGDHKMAMDGYRRILNLLSPSDGERFMQLARDMAKSYYEANDVTSAINIIDEAFSKHQGLVSMEDVNIAAELYISNKQYDKALEIITDFSGIVLEKKTSEEGTSEENKAPENVTCTIPDGVPIDITVKLMVCLVHLNILEPLNPLLTTLVEQNPEDMGDLYLDVAEAFLDVGEYNSALPLLSALVCSERYNLAVVWLRHAECLKALGYMERAAESYGKVVDLAPLHLDARISLSTLQQQLGQPEKALEALEPMYDPDTLAQDANAAQQELKLLLHRSTLLFSQGKMYGYVDTLLTMLAMLLKVAMNRAQVCLISSSKSGERHLYLIKVSRDKISDSNDQESANCDAKAIFAVLTSVLTKDDWWNLLLKAIYSLCDLSRFQEAELLVDSSLEYYSFYDDRQKRKELEYFGLSAAILDKNFRKAYNYIRIMVMENVNKPQLWNIFNQVTMHSQDVRHHRFCLRLMLKNPENHALCVLNGHNAFVSGSFKHALGQYVQAFRTHPDEPLYSFCIGLTFIHMASQKYVLRRHALIVQGFSFLNRYLSLRGPCQESFYNLGRGLHQLGLIHLAIHYYQKALELPPLVVEGIELDQLDLRRDIAYNLSLIYQSSGNTGMAQTLLYTYCSI [GTF3C3]”, the figures for the thermal stability score in series [1] (setting [5]) and in series [1] (cell cycle stage: mitosis) were 2.95 and 5.2, respectively. Moreover, the melting temperature in series [2] (cell cycle stage: G1/S) stood at 45.9 °C; in series [2] (cell cycle stage: mitosis), 49.1 °C. For the same sequence, the “solubility change mitosis (log2)” value in series [3] was -0.0144. Further, in series [4], the “solubility in G1/S (log2)” value was -0.231.
Regarding “MSGLSGPPARRGPFPLALLLLFLLGPRLVLAISFHLPINSRKCLREEIHKDLLVTGAYEISDQSGGAGGLRSHLKITDSAGHILYSKEDATKGKFAFTTEDYDMFEVCFESKGTGRIPDQLVILDMKHGVEAKNYEEIAKVEKLKPLEVELRRLEDLSESIVNDFAYMKKREEEMRDTNESTNTRVLYFSIFSMFCLIGLATWQVFYLRRFFKAKKLIE [TMED10]”, the thermal stability score in series [1] (setting [5]) was 0.651; in series [1] (cell cycle stage: mitosis), -0.174. For the same sequence, the melting temperature in series [2] (cell cycle stage: G1/S) was 55.3 °C; in series [2] (cell cycle stage: mitosis), 55.8 °C. The “solubility change mitosis (log2)” value in series [3] was -0.0383. Further, in series [4], the “solubility in G1/S (log2)” value was 0.076.
Turning to “MSGPRPVVLSGPSGAGKSTLLKRLLQEHSGIFGFSVSHTTRNPRPGEENGKDYYFVTREVMQRDIAAGDFIEHAEFSGNLYGTSKVAVQAVQAMNRICVLDVDLQGVRNIKATDLRPIYISVQPPSLHVLEQRLRQRNTETEESLVKRLAAAQADMESSKEPGLFDVVIINDSLDQAYAELKEALSEEIKKAQRTGA [GUK1]”, the thermal stability score in series [1] (setting [5]) is -0.1; in series [1] (cell cycle stage: mitosis) it was -0.804. The melting temperature came to 48.9 °C in series [2] (cell cycle stage: G1/S) and 50.2 °C in series [2] (cell cycle stage: mitosis). Also, in series [3], the “solubility change mitosis (log2)” value came to 0.047. For the same sequence, the “solubility in G1/S (log2)” value in series [4] amounted to 0.604.
For “MSGQPPPPPPQQQQQQQQLSPPPPAALAPVSGVVLPAPPAVSAGSSPAGSPGGGAGGEGLGAAAAALLLHPPPPPPPATAAPPPPPPPPPPPASAAAPASGPPAPPGLAAGPGPAGGAPTPALVAGSSAAAPFPHGDSALNEQEKELQRRLKRLYPAVDEQETPLPRSWSPKDKFSYIGLSQNNLRVHYKGHGKTPKDAASVRATHPIPAACGIYYFEVKIVSKGRDGYMGIGLSAQGVNMNRLPGWDKHSYGYHGDDGHSFCSSGTGQPYGPTFTTGDVIGCCVNLINNTCFYTKNGHSLGIAFTDLPPNLYPTVGLQTPGEVVDANFGQHPFVFDIEDYMREWRTKIQAQIDRFPIGDREGEWQTMIQKMVSSYLVHHGYCATAEAFARSTDQTVLEELASIKNRQRIQKLVLAGRMGEAIETTQQLYPSLLERNPNLLFTLKVRQFIEMVNGTDSEVRCLGGRSPKSQDSYPVSPRPFSSPSMSPSHGMNIHNLASGKGSTAHFSGFESCSNGVISNKAHQSYCHSNKHQSSNLNVPELNSINMSRSQQVNNFTSNDVDMETDHYSNGVGETSSNGFLNGSSKHDHEMEDCDTEMEVDSSQLRRQLCGGSQAAIERMIHFGRELQAMSEQLRRDCGKNTANKKMLKDAFSLLAYSDPWNSPVGNQLDPIQREPVCSALNSAILETHNLPKQPPLALAMGQATQCLGLMARSGIGSCAFATVEDYLH [RANBP9]”, the thermal stability score is -0.277 in series [1] (setting [5]) and -0.378 in series [1] (cell cycle stage: mitosis). The values for the melting temperature in series [2] (cell cycle stage: G1/S) and in series [2] (cell cycle stage: mitosis) were 51.6 °C and 51.1 °C, respectively. In addition, the “solubility change mitosis (log2)” value in series [3] is -0.126. The “solubility in G1/S (log2)” value in series [4] is 0.115.
For “MSGQSLTDRITAAQHSVTGSAVSKTVCKATTHEIMGPKKKHLDYLIQCTNEMNVNIPQLADSLFERTTNSSWVVVFKSLITTHHLMVYGNERFIQYLASRNTLFNLSNFLDKSGLQGYDMSTFIRRYSRYLNEKAVSYRQVAFDFTKVKRGADGVMRTMNTEKLLKTVPIIQNQMDALLDFNVNSNELTNGVINAAFMLLFKDAIRLFAAYNEGIINLLEKYFDMKKNQCKEGLDIYKKFLTRMTRISEFLKVAEQVGIDRGDIPDLSQAPSSLLDALEQHLASLEGKKIKDSTAASRATTLSNAVSSLASTGLSLTKVDEREKQAALEEEQARLKALKEQRLKELAKKPHTSLTTAASPVSTSAGGIMTAPAIDIFSTPSSSNSTSKLPNDLLDLQQPTFHPSVHPMSTASQVASTWGDPFSATVDAVDDAIPSLNPFLTKSSGDVHLSISSDVSTFTTRTPTHEMFVGFTPSPVAQPHPSAGLNVDFESVFGNKSTNVIVDSGGFDELGGLLKPTVASQNQNLPVAKLPPSKLVSDDLDSSLANLVGNLGIGNGTTKNDVNWSQPGEKKLTGGSNWQPKVAPTTAWNAATMAPPVMAYPATTPTGMIGYGIPPQMGSVPVMTQPTLIYSQPVMRPPNPFGPVSGAQIQFM [PICALM]”, the thermal stability score in series [1] (setting [5]) is -1.28; in series [1] (cell cycle stage: mitosis), -1.63. The melting temperature stood at 53.7 °C in series [2] (cell cycle stage: G1/S) and 53.1 °C in series [2] (cell cycle stage: mitosis). The “solubility change mitosis (log2)” value in series [3] was -0.0327. Further, in series [4], the “solubility in G1/S (log2)” value was determined as 0.0523.
With “MSGRSKRESRGSTRGKRESESRGSSGRVKRERDREREPEAASSRGSPVRVKREFEPASAREAPASVVPFVRVKREREVDEDSEPEREVRAKNGRVDSEDRRSRHCPYLDTINRSVLDFDFEKLCSISLSHINAYACLVCGKYFQGRGLKSHAYIHSVQFSHHVFLNLHTLKFYCLPDNYEIIDSSLEDITYVLKPTFTKQQIANLDKQAKLSRAYDGTTYLPGIVGLNNIKANDYANAVLQALSNVPPLRNYFLEEDNYKNIKRPPGDIMFLLVQRFGELMRKLWNPRNFKAHVSPHEMLQAVVLCSKKTFQITKQGDGVDFLSWFLNALHSALGGTKKKKKTIVTDVFQGSMRIFTKKLPHPDLPAEEKEQLLHNDEYQETMVESTFMYLTLDLPTAPLYKDEKEQLIIPQVPLFNILAKFNGITEKEYKTYKENFLKRFQLTKLPPYLIFCIKRFTKNNFFVEKNPTIVNFPITNVDLREYLSEEVQAVHKNTTYDLIANIVHDGKPSEGSYRIHVLHHGTGKWYELQDLQVTDILPQMITLSEAYIQIWKRRDNDETNQQGA [USP39]”, the thermal stability score in series [1] (setting [5]) is -0.187; in series [1] (cell cycle stage: mitosis), -0.193. For the same sequence, the melting temperature in series [2] (cell cycle stage: G1/S) amounted to 51.4 °C; in series [2] (cell cycle stage: mitosis) it was 51.9 °C. In series [3], the “solubility change mitosis (log2)” value worked out at 0.178. The “solubility in G1/S (log2)” value in series [4] is -0.4.
“MSGSFELSVQDLNDLLSDGSGCYSLPSQPCNEVTPRIYVGNASVAQDIPKLQKLGITHVLNAAEGRSFMHVNTNANFYKDSGITYLGIKANDTQEFNLSAYFERAADFIDQALAQKNGRVLVHCREGYSRSPTLVIAYLMMRQKMDVKSALSIVRQNREIGPNDGFLAQLCQLNDRLAKEGKLKP [DUSP3]”: the thermal stability score is 0.0996 in series [1] (setting [5]) and -0.0543 in series [1] (cell cycle stage: mitosis). The melting temperature stood at 50.4 °C in series [2] (cell cycle stage: G1/S) and 51 °C in series [2] (cell cycle stage: mitosis). The “solubility change mitosis (log2)” value in series [3] was 0.131. Further, the “solubility in G1/S (log2)” value in series [4] is 0.676.
